The nature of data set [1]: Water-solubility of azido-sugar. Format: physicochemical.
Data set [2] deals with DC2.4 cells. The data set is described as follows: Metabolic labeling of DC2.4 cells with azido-sugars, detected by DBCO agents (flow cytometry). Format: cell-based. To be noted: 3 days incubation, DBCO-Cy5 staining 30 min; vs control cells without pretreatment. How it is done:
It was first tested whether tetraacetyl-N-azidoacetylmannosamine (Ac4ManAz), a commonly used metabolic labeling agent, can label DC2.4 cell line with azido groups (FIG. 2A). Ac4ManAz was synthesized following the reported procedure (Wang, H. et al. Selective in vivo metabolic cell-labeling-mediated cancer targeting. Nature Chemical Biology 13, 415-424 (2017)). […] For flow cytometry analysis of azido-labeled cells, cells were seeded in a 24-well plate at a density of 1×10^4 cells per well and allowed to attach for 12 hours. Azido-sugar was added and incubated with cells for 72 hours. […] Cells were then collected via a cell scraper, re-suspended in FACS buffer, and analyzed by flow cytometry.

Data set [3] deals with azido-labeled BMDCs. The data set is described as follows: In vitro capture of DBCO-OVA and DBCO-CpG by azido-labeled BMDCs. The conditions noted are these: BMDCs labeled with G400 NP three days, 30 min incubation; vs FITC-OVA. The class given is cell-based. The protocol: Another objective of this invention was to utilize azido-labeled DCs, as achieved above, for LN-targeted delivery of DBCO-bearing antigens and adjuvants. It was first studied whether azido-labeled DCs could covalently capture DBCO-ovalbumin (OVA) and DBCO-CpG in vitro. BMDCs were labeled with G400 NP for three days and incubated with DBCO/FITC-OVA or FITC-OVA for 30 min. […] Similarly, BMDCs pretreated with G400 NP were able to capture more DBCO/Cy5-CpG than control BMDCs (FIGS. 5C and 5D).

Data set [4] deals with azido-labeled DCs in dLNs. The data set is described as follows: In vivo LN-targeted delivery of DBCO-OVA. Further details: species or system C57BL/6 mice. The conditions noted are these: for A647 signal of LNs: 48 h post injection. From the text:
It was next studied whether the azido-labeled DCs in dLNs can mediate targeted delivery of DBCO-OVA via Click chemistry.

`CC(=O)OC[C@H]1OC(OC(C)=O)[C@@H](NC(=O)CN=[N+]=[N-])[C@@H](OC(C)=O)[C@@H]1OC(C)=O` (some centres unmarked) [Ac4ManAz, tetraacetyl-N-azidoacetylmannosamine]: in data set [1], the water-solubility entry was “poor”. In addition, the “Cy5 signal of DC2.4 cells” value in data set [2] is given as “significantly enhanced Cy5 signal”.

B1: DBCO/FITC-OVA: DBCO- and FITC-modified ovalbumin (conjugate, UniProt P01012 2-386, looked up)
Ovalbumin: GSIGAASMEFCFDVFKELKVHHANENIFYCPIAIMSALAMVYLGAKDSTRTQINKVVRFDKLPGFGDSIEAQCGTSVNVHSSLRDILNQITKPNDVYSFSLASRLYAEERYPILPEYLQCVKELYRGGLEPINFQTAADQARELINSWVESQTNGIIRNVLQPSSVDSQTAMVLVNAIVFKGLWEKAFKDEDTQAMPFRVTEQESKPVQMMYQIGLFRVASMASEKMKILELPFASGTMSMLVLLPDEVSGLEQLESIINFEKLTEWTSSNVMEERKIKVYLPRMKMEEKYNLTSVLMAMGITDVFSSSANLSGISSAESLKISQAVHAAHAEINEAGREVVGSAEAGVDAASVSEEFRADHPFLFCIKHIATNAVLFFGRCVSP
modifications: FITC, DBCO
notes: DBCO- and FITC-modified ovalbumin
With B1, in data set [3], the “cellular uptake by azido-labeled BMDCs” value is on record as “improved cellular uptake”.

B2: DBCO/A647-OVA: Alexa fluor647 (A647)-conjugated DBCO-OVA (conjugate, UniProt P01012 2-386, looked up)
Ovalbumin: B1 Ovalbumin
modifications: Alexa Fluor 647, DBCO
For the molecule B2, the “percentage of A647-OVA+ DCs in dLNs” value in data set [4] (6 h post injection) was ~43%. For the same molecule, in data set [4] (6 h post injection, vs A647-OVA), the “A647 fluorescent signal in dLNs” value is listed as “significantly enhanced A647 fluorescent signal”. In addition, the “accumulation in dLNs” value in data set [4] (24 h post injection, vs A647-OVA) is given as “significantly improved accumulation”. In addition, the “A647 signal of LNs” value in data set [4] is “dramatically decreased”.

B3: A647-OVA: Alexa fluor647-conjugated OVA without DBCO (conjugate, UniProt P01012 2-386, looked up)
Ovalbumin: B1 Ovalbumin
modifications: Alexa Fluor 647
notes: Alexa fluor647-conjugated OVA without DBCO
On to B3, for which the “A647 signal of LNs” value in data set [4] is “dramatically decreased”.

The values are drawn from patent publication US12258430B2, “Compositions and methods for labeling and modulation of cells in vitro and in vivo” (President and Fellows of Harvard College, priority 2018, dated 2025).
